system: MS2 coat protein; test: apparent KD of MS2 coat protein; higher = weaker reporter binding; conditions: Eterna round: R107; input ligand: theophylline 2 mM
Method in brief: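 For every design, apparent KD is the median of normalised binding-curve fits from its clusters. The RNA switches were transcribed on-chip from Illumina sequencing clusters and titrated with SNAP-549-labelled MS2 coat protein (twofold steps, 0.7 or 1.5 nM to 3 µM; 0.8–1.5 h to 10–20 min per step). Titrations used 100 mM Tris-HCl pH 7.5, 80 mM KCl, 4 mM MgCl2, without or with constant ligand.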

Row | Sequence | apparent KD of MS2 coat protein
1 | AUGGAGACCUCGGCCGCCACUCUCCAUGAGGAUCUCCCAUGUAACAUGAGGAUCACCCAUGUGCUGAGGACCGGGAGGUCCUGAA [Same State Tryptophan B GF 18] | 12.5 nM
2 | UGUAUGGACUGAAGGAGCGGGAAAUAAACUUGAGGAUCACCCAGGUAAUAGGCGAAAGCCACCCAGGUAGGUCGCAGUCCAUACU | 45.7 nM
3 | UCGUUUUAGUCGGCCGCCACUGUGAGCAUGGUUAACAUGAGGAUCACCCAUGUCCCGUACUAUAACAGGACCGGGACGUAGUUGC [#09 Same State - Tryptophan B] | 253 nM
4 | ACAUGAGGAUCACCCAUGUGAAGCAGGGUACGAGGACCGGUACGGCCGCCACUCGAGGAUUAUGCCGAGUGAAUGGCAACGAUGU [whbob_Ex_trypto A_2s19] | 16.2 nM
5 | GCAUCCUAGUCGGCCGCCACUACAACAUGAGGAUCACCCAUGUGUGGGAGAUCCGUCCUACGAAGUAGGACCGGGACUAGGAUGC [(T1)-(M1)-(M2)-(T)''-(M)'-(T)'-(T2)_Design5_2/18/17] | 324 nM
6 | AUUGUCAAGUCGGCCGCCACUUCUGCCAUGGCCACCAGUCGACAUGAGGAUCACCCAUGUCUCUUAAGGACCGGGACUUUCAAUU [theeternabot_sameState_MS2_Trp_B_6] | 13.9 nM
7 | GGGUGGUAGGCGGCCGCCACUGAUUUUUAUUUAUAGAUGACAUGAGGAUCACCCAUGUAGAUAUGCAGGACCGGGCCUGUUGUUU [aaaO] | 19.3 nM
8 | CGCACAUGAGGAUCACCCAUGUGAGGGCGUCGAGGACCGGUACGGCCGCCACUCGCAGGACAUGAGGAUCACCCAUGUGCCGCCG [SSTA DOUBLE!!! :-D #4] | 145 nM
9 | ACAUGAGGAUCACCCAUGUAAUAAUCAGAAGGAGCGUGGAAUAACACAGGUAGGUCGCUGAUGUUUGGUUAAAAUUAUUCGUGAA [JR_ExcArginiA_Sub001] | 14 nM

same assay, conditions: Eterna round: R107; input ligand: tryptophan 2.4 mM

Row | Sequence | apparent KD of MS2 coat protein
10 | GCUAGGUCUACGGCCGCCACUAGACGUGGGUUAAACAUGAGGAUCACCCAUGUGCUACAGGCGCAUAGGACCGGGUAGACCUAGC [SSTB NP+V+V2 #9 +-Same Structure] | 63.7 nM
11 | GGGCAAGAGGGAAGGAGCGUCAGCUGAGUCACAUGAGGAUCACCCAUGUAGCACAUAGUGUGACAGGUAGGUCGCCCUCUGCCCU [SS-ArgB5] | 11.6 nM
12 | UUCGUUUACGGAAGGAGCGACGGACAUCGGUGAUCUAUGCACAUGAGGAUCACCCAUGUACGUCAGGUAGGUCGCCGUUAAGAGU [XArg-B28] | 9.59 nM
13 | GGUCUCUGGAGCGAUACCAGCUUAAGUGUACUGGCCAGGUACAUGAGGAUCACCCAUGUAAGCCCUUGGCAGCGCUCCAGAGACC [#1 Exclusion - Theophylline B Attempt #14 (HarryS)] | 12.2 nM
14 | AAGGUGAUCCGUGAUACCAGCUCAACAUGAGGAUCACCCAUGUAACGGACGAAAGUCCGGAGCCCUUGGCAGCACGGUUGCCAAG [(M)'-(Theo1)-(Ms2)-(Theo2)-(M'')-(T2)'_Design1b] | 83.8 nM
15 | AAACAUGACAUGGAUACCAGACACAUGAGGAUCACCCAUGUUGAGGAUCACCCAUGUCCCGUCCCUUGGCAGCCAGCAUGAGGAU [Exclusion Theophylline B 2] | 8.83 nM
16 | GAGGGUGAAUCUCUAGUCCGUUUGACGGAUACCAGCGAGAGGUAUCGCCCUUGGCAGCCGACGACAUGAGGAUCACCCAUGUUAA [#07 Exclusion-TheophyllineA] | 29.3 nM
17 | GAUAUGGAAACAUGUCAGAUCCUUACCGGUCGAGGACCGGUACGGCCGCCACUCGAAAACGAUGUACAUGAGGAUCACCCAUGUA [Ex Tryptophan A 19] | 21.6 nM
18 | GCUUGCUUGUAAGGUUCUGUCCGGCGUCGUCGAGGACCGGUACGGCCGCCACUCGCGCGUUUACAUGAGGAUCACCCAUGUCAUG [theeternabot_exclusion_MS2_Trp_A_49] | 47.5 nM
19 | AAUAAUAAGGCGGCCGCCACUAAACAUGAGGAUCACCCAUGUCUCGAGCGCAUACAUAAGGGAUGUAGGACCGGGCCAAUAAUAA [Exclusion - Tryptophan B (Freestyle 1)] | 21.3 nM
20 | AGGUGGCGCGGAAGGAGCGAGUUUGCCUAUUACAUGAGGAUCACCCAUGUGGGUAAUGGGACUCAGGUAGGUCGCCGUUGUCGCU [Same State Arginine B GF 27] | 61.5 nM
21 | ACGAUGCGACAUGAGGAUCACCCAUGUGAUACCAGCCUGGAAACAGGCCCUUGGCAGCACAAAUACUCCAGAAACGCAUCGAAUA [MAT - Exclusion Theophlline A - Mod of Eli - D3] | 348 nM
22 | GCUGUGAAGUCGGCCGCCACUGGUUAGUUUAACCUCAUGUAACAUGAGGAUCACCCAUGUAAUGUCAGGACCGGGACAACAGCAA [JR_ExcTryptoB_Sub016] | 357 nM
23 | GAUUGCAUCGAUUCUCCACUCGCACCUGAUACCAGCGAUAGAAUUCGCCCUUGGCAGCAGUACACAUGAGGAUCACCCAUGUUAU [theeternabot_exclusion_MS2_Theo_A_20] | 35 nM
24 | ACGAACGAUAGUGAUACCAGACGAACAUGAGGAUCACCCAUGUUAUACACAUGGUUUAUUGUCCCUUGGCAGCACUUUAAGUUCG [JR_ExcTheophyB_Sub006] | 146 nM
25 | AAUAACAUGAGGAUCACCCAUGUAAAAGAUACCAGAGUGAUGAUCCUCCCUUGGCAGCUUAAACGCUAUUGGAAACAAUAGCGAA [Mat - Same State Theophlline A - Mod of Eli - D3] | 57.7 nM
26 | AGCGACAUGCAUGAUACCAGCUACAUGAGGAUCACCCAUGUACGUCAGUAAUGACUGUGUAGCCCUUGGCAGCAUAGAGCAUGUU [Exclusion - Theophylline B (Freestyle 15)] | 16.5 nM
27 | AUGCACCUCGUCCAGGCAAUCUUUAGUGAUACCAGCUAACUCCUUGGCCCUUGGCAGCACAUGAGGAUCACCCAUGUGCGACAUC [Tidile] | 13.9 nM
28 | UGUAACAUGAGGAUCACCCAUGUGAGUGAUACCAGACUAGUAUUAGUCCCUUGGCAGCACGUUGGGCGAGUGUAUAGUCUAUGCG [Same State - Theophylline A (Freestyle 14)] | 80.3 nM
29 | GGCUAGUGCAUCGAUACCAGCUACAUGAGGAUCACCCAUGUAGGAAGGGUGGUACUCGAUAGCCCUUGGCAGCGAACACCUCCGG [Quoran] | 18.8 nM
30 | UGUAUGGACUGAAGGAGCGGGAAAUAAACUUGAGGAUCACCCAGGUAAUAGGCGAAAGCCACCCAGGUAGGUCGCAGUCCAUACU | 28.5 nM
31 | AUAUGAUCAUACGAUACCAGAAAUGGUAUUCCUUUAUUUCUUACAUGAGGAUCACCCAUGUUCCCUUGGCAGCGUAUGAUCAUAU [ETHB #3] | 303 nM
32 | AAUCCAAGAAAUGAUACCAGUCCCACUCAGGACAUGAGGAUCACCCAUGUAAUACAGGGAGACCCUUGGCAGCAUCGAAUAAACA [theeternabot_sameState_MS2_Theo_B_33] | 1070 nM
33 | AAUAACAUGAGGAUCACCCAUGUAAAAGAUACCAGAGUGAUGAUCCUCCCUUGGCAGCUUAAUAACGCUAUCGGAAACGAUAGCG [Mat - Same State Theophlline A - Mod of Eli - D8] | 72 nM
34 | ACAUGAGGAUCACCCAUGUAAUAAUCAGAAGGAGCGUGGAAUAACACAGGUAGGUCGCUGAUGUUUGGUUAAAAUUAUUCGUGAA [JR_ExcArginiA_Sub001] | 14 nM
